“Also recorded” adds a separate entry of the source. Like-named read-outs stand apart in the source and are kept apart here. Where no end group is shown, it is not given here. [ ]: non-standard residue; d: D form. hPhe = N[C@@H](CCc1ccccc1)C(=O)O
What was measured:
MT2-MMP = MT2-MMP (Homo sapiens, UniProt P51511); test: Cleavage of RS-(Cit)-G-(homoF)-YLY derivatives by MT2-MMP; format: biochemical
MMP9 = MMP9 (Homo sapiens, UniProt P14780); test: Cleavage of ACPP substrates by purified MMP-9; format: biochemical; conditions: versus MMP-2 and MMP-14
Sequence of MMP9 (P14780 94-707): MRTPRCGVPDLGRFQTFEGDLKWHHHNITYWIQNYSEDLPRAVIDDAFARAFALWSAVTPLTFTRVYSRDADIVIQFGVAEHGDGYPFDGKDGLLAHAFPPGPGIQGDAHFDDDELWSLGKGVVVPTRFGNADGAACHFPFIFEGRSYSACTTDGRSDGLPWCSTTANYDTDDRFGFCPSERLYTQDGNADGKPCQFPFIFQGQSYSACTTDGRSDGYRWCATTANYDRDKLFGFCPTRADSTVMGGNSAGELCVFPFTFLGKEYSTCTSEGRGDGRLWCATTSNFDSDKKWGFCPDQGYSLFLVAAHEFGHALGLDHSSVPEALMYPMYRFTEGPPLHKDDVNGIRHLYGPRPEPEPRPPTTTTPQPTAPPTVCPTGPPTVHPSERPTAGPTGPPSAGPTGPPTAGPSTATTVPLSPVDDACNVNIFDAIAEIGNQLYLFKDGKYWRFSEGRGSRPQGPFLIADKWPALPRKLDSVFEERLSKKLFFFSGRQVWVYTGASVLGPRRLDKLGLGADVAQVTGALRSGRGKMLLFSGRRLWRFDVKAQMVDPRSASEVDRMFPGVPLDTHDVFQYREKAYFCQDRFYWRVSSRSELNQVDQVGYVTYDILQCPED
Experimental: (§1) FIG. 7 describes selectivity for substrates for MMP2, 9 and 14 (1 uM peptide 20 nM enzyme). A) MT1 selective RSHPHfeTLY (SEQ ID NO: 19).
(§2) FIG. 8A, FIG. 8B and FIG. 8C describe selectivity for substrate cut with MMP-2, MMP9 and MMP-14.
(§3) To generate new substrates for MMPs, amino acids were substituted at key position at and near the cleavage site based on the following rule derived by recent work by Ratnikov et al^26 that the amino acid at a certain position must improve cleavage by the specific enzyme and reduce cleavage by other related enzymes. For increased specificity, an amino acid should be red for the enzyme of interest compared green for the other enzymes at the same substitution position (FIG. 36A). These substrates will be tested by treating 5 μM peptide with 20 nM of each enzyme for 2 hours and analyse by gel electrophoresis.
(§4) FAM/Cy5 ratiometric versions of RACPPs with these sequences were made and tested to confirm selectivity. The preferred form Cy5/Cy7 ratiometric versions for in vivo testing with a pegylated carrier to help with solubility is currently being synthesized. For MMP 11 a similar approach will be adopted in finding selective substrates.^26.

[1] = target: urokinase plasminogen activator (uPA) (Homo sapiens, UniProt P00749); test: Screen of protease substrates for cleavage by uPA; format: biochemical; conditions: substrate in the context of an ACPP
Experimental: (§5) To generate novel RACPP species that are selective for uPA, a set of protease substrates were screened that were diverse and likely cleaved by serine protease in that they contain either a lysine or arginine residue flanked by diverse amino acids. […] Several other substrates that were reported to be cleaved by uPA were also tested but were not cleaved possible because the constrained structure of the substrate within the context of an ACPP.
To generate novel RACPP species that are specific for uPA, a set of protease substrates were screened that were diverse and likely cleaved by serine protease in that they contain either a lysine or arginine residue flanked by diverse amino acids.

tPA = tPA (Homo sapiens, UniProt P00750); test: Screen of protease substrates for cleavage by tPA; format: biochemical; conditions: compared with uPA
Sequence of tPA (P00750 36-562, species assumed): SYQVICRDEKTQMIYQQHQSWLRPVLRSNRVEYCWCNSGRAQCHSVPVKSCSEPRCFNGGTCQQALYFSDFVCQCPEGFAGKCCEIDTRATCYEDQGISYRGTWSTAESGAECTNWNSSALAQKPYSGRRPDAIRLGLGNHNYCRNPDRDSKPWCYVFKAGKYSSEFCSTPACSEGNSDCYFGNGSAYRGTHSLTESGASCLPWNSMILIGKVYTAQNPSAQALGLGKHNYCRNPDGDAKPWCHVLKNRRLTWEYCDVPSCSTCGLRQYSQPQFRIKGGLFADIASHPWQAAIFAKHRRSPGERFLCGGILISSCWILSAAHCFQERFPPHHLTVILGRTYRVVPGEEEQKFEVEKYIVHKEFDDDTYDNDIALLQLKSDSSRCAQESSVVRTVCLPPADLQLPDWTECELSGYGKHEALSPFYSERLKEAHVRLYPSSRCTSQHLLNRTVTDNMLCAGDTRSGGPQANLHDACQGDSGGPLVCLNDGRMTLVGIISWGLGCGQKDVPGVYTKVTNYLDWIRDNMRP
Experimental: as §5

MMP-14 = MMP-14 (Homo sapiens, UniProt P50281); test: Cleavage of ACPP substrates by purified MMP-14; format: biochemical; conditions: versus MMP-2 and MMP-9
Experimental: as §1, §2, §3, §4

MMP-2 [2] = target: T1, MMP-2 (Homo sapiens, UniProt P08253); test: Cleavage of ACPP substrates by purified MMP-2; format: biochemical; conditions: versus MMP-9 and MMP-14
T1 sequence (P08253 110-660): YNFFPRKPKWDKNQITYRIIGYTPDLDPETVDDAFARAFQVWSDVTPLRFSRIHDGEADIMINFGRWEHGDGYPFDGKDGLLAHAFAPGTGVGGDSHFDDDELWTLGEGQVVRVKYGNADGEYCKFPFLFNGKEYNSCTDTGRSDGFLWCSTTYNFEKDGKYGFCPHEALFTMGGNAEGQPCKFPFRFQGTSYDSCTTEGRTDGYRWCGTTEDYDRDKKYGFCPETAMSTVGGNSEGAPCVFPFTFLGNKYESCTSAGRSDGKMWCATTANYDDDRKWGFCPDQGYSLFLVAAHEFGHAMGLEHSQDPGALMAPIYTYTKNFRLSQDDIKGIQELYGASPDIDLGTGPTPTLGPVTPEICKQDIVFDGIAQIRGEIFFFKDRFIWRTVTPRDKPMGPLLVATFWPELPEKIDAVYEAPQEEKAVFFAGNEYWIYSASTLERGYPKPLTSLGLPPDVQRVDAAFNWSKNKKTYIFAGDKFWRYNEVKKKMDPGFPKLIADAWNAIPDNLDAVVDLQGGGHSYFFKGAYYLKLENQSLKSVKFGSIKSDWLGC
Experimental: as §1, §2, §3, §4

multiple MMPs = test: Specificity of first generation cleavable site among MMPs; format: biochemical
Source text: In contrast to mRNA expression or copy number detection methods, RACPPs detect in vivo protease activity, thus bypassing the complicated interplay between transcription/translation, pro- and active forms of the enzymes, as well as the presence of inhibitors/activators etc. It was shown that RACPP uptake correlates with tumor burden^15 and with tumor characteristics corresponding to poor survival^18.
RACPPs are capable of monitoring protease activity in real time living animal models of cancer. […] To tease out the involvement of specific individual proteases involved in the various stages of cancer growth, invasion and metastasis, it was sought to identify RACPP cleavable sites that are specific for individual select proteases.

MMP-2 [3] = target: T1, MMP-2; test: Cell uptake after cleavage of linker by MMP-2; format: cell-based; conditions: cleaved by MMP-2
Source text: For example, a linker X that includes the amino-acid sequence PLGLAG (SEQ ID NO: 1) may be cleaved by the metalloproteinase enzyme MMP-2 (a major MMP in cancer and inflammation). Cleavage of such a linker X occurs between the central G and L residues, causing cell uptake to increase by 10 to 20-fold. A great deal is known about the substrate preferences of different MMPs, so that linkers X may be designed that are able to bias X to be preferentially sensitive to particular subclasses of MMPs, or to individual members of the large MMP family of proteinases. For example, in some embodiments, linkers X designed to be cleaved by membrane-anchored MMPs are particularly employed because their activity remains localized to the outer surface of the expressing cell. In alternative embodiments, linkers X designed to be cleaved by a soluble secreted MMP are employed where diffusion of cargo C away from the exact location of cleavage may be desired, thereby increasing the spatial distribution of the cargo. Other linkers X cleavable by other MMPs are discussed throughout the application.

Sequence of MT2-MMP (P51511 132-669, species assumed): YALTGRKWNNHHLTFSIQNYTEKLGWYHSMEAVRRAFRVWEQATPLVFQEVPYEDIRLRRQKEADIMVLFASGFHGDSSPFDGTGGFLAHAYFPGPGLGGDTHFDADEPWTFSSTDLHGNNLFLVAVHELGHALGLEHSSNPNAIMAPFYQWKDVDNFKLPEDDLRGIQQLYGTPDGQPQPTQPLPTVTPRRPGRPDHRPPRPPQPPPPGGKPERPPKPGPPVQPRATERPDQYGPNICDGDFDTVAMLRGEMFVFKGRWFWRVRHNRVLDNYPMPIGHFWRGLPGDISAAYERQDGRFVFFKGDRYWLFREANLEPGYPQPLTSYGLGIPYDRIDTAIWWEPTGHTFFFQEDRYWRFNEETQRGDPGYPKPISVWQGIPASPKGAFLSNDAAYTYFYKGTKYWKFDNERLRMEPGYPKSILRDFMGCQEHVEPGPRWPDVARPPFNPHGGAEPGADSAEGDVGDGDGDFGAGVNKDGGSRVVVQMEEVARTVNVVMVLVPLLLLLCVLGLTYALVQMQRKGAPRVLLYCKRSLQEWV

In the case of RS-Q-G-(homoF)-YLY (RSQG[hPhe]YLY), the “cleavage by MT2-MMP” value (MT2-MMP) is reported as “significant cleavage”.

For SNPYK-Y (SNPYKY; cleavable linker), the “cleavage by / selectivity for MMP9” value (MMP9) was “MMP9 selective” and the “cleavage by / selectivity for MMP9” value (MMP9; listed as SNPYKY) was “selective”.

For YGRAAA (cleavable linker), the “cleavage by uPA” value [1] was “efficiently cleaved; also recorded: increase in Cy5/Cy7 signal ratio” and the “cleavage by tPA” value (tPA) was “to a lesser extent”.

With RSHG-(homoF)-FLY (RSHG[hPhe]FLY) the “cleavage by / selectivity for MMP-14 (MT1-MMP)” value (MMP-14) was “highly selective and efficiently cleaved” and the “cleavage by / selectivity for MMP-14 (MT1-MMP)” value (MMP-14; listed as RSHG(Hfe)FLY) was “selective”.

In the case of TIAH/LH, the “cleavage by / selectivity for MMP-2” value (MMP-2 [2]) is reported as “selectively cleaved”.

In the case of PLGC(Me)AG, the “cleavage by multiple MMPs (lack of specificity)” value (multiple MMPs) is reported as “cut by multiple MMPs” and the “cleavage by multiple MMPs (lack of specificity)” value (multiple MMPs; listed as PLGC(me)AG) is reported as “cleaved by multiple proteases”.

With RSHP[hPhe]TLY the “cleavage by / selectivity for MMP-14 (MT1-MMP)” value (MMP-14) was “MMP14 selective” and the “cleavage by / selectivity for MMP-14 (MT1-MMP)” value (MMP-14; listed as RSHPHfeTLY) was “MT1 selective”.

For TIAHLA (cleavable linker), the “cleavage by / selectivity for MMP-2” value (MMP-2 [2]) was “MMP2 selective”.

RS-(Cit)-G-(homoF)-YLY was tested, and the “cleavage by / selectivity for MMP-14 (MT1-MMP)” value (MMP-14) was “MMP14 selective”.

In the case of PLGLAG (cleavable linker), the “increase of cell uptake after cleavage between the central G and L residues” value (MMP-2 [3]) is reported as 10 to 20 fold.

For TLSE-LH (TLSELH; cleavable linker), the “cleavage by / selectivity for MMP-2” value (MMP-2 [2]) was “MMP-2 selective”.

SNPYG-Y (SNPYGY; cleavable linker) was tested, and the “cleavage by / selectivity for MMP9” value (MMP9) was “MMP9 selective”.

— patent publication US10385380B2, “Personalized protease assay to measure protease activity in neoplasms” (The Regents of the University of California, priority 2014, dated 2019)
